Source: patent publication US9284369B2, “Inhibition of angiogenesis” (Genentech, Inc., priority 2007, dated 2016)

Key:
Bv8 protein levels = assay: Serum Bv8 in A673 tumor-bearing mice treated with cisplatin; type: in vivo, mouse; details: cisplatin 5 mg/kg, alone or in combination with anti-VEGF
Protocol: FIG. 6. […] Anti-Bv8 treatment is mostly effective when treatment is initiated early in tumor development. […] Mice were then treated with control, anti-Bv8, anti-VEGF or combination (anti-VEGF plus anti-Bv8) of antibodies. Tumor volume was measured as described. * indicates significant difference (p<0.05) in tumor volume between combination therapy vs. anti-VEGF monotherapy. c&d. […] Nude mice (c) and C57B1/6 (d) mice were implanted with EL4 cells and underwent treatment with control, anti-Bv8, anti-VEGF or the combination. Tumor volume and terminal tumor weight were measured as described. * indicates significant difference […] in tumor volume in control vs. each monotherapy or the combination therapy. Differences in tumor volume are also significant when comparing combination vs. each monotherapy. e. Cisplatin and anti-VEGF treatment increase Bv8 concentration in the serum. Beige nude mice were implanted with A673 cells and were treated with PBS, cisplatin (5 mg/kg) plus control antibody, cisplatin plus anti-Bv8, or cisplatin plus anti-VEGF or the combination cisplatin, anti-Bv8 and anti-VEGF. Serum Bv8 protein concentrations were measured by ELISA. f. Chemotherapy plus anti-VEGF and anti-Bv8 can effectively suppress tumor growth in established A673 tumors. […]

[1] = test system: A673, HM7, HPAC and Calu6 cells; assay: Tumor cell proliferation assay (BrdU incorporation); type: cell-based, human; details: range of concentrations
Protocol: A673, HM7, HPAC and Calu6 cells were trypsinized and washed in media containing 0.5% FBS before seeding into 96-well black Viewplate (Packard Bioscience Company, Meriden, Conn.). Cells were incubated with various amounts of Bv8 (PeproTech Inc., Rocky Hill, N.J.) for 3 days. 10% FBS-containing media served as a positive control. Cell proliferation was assessed by BrdU incorporation using the Cell Proliferation ELISA kit (Roche).

PKR1/EG-VEGFR1 = biological target: T1, PKR1/EG-VEGFR1 (Homo sapiens, UniProt Q8TCW9); assay: Bv8 bioactivity assay, GeneBLAzer NFAT-CHO cells transfected with PKR1/EG-VEGFR1; type: cell-based; details: Bv8 0.2-200 ng/ml; VEGF-A up to 200 ng/ml
T1 construct: host or cells: GeneBLAzer NFAT-CHO cells
T1 sequence (Q8TCW9 whole entry): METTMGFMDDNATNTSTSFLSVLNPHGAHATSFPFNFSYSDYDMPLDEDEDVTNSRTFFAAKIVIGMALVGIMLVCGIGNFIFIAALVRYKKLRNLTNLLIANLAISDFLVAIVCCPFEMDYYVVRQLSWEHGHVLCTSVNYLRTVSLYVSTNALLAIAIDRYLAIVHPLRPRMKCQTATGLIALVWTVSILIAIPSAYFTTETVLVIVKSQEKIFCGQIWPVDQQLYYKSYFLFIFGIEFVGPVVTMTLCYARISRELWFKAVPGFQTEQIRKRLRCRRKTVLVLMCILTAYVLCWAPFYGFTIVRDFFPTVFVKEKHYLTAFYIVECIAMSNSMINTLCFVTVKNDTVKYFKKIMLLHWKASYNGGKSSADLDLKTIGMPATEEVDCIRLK
Protocol: The GeneBLAzer® NFAT-CHO cells were obtained from Invitrogen Corporation (Carlsbad, Calif.). Cells were stably transfected with PKR1/EG-VEGFR1 and grown in DMEM (high glucose) containing 10% dialysed serum, 0.1 mM NEAA, 2 mM GlutaMax™ (Gibco), 1 mM sodium pyruvate, 10 μg/ml Zeocin, 500 μg/ml hygromycin. Cells were plated into 96-well Viewplate (Packard) with 2.5×10^4 in […] in 1% DMEM overnight at 5% CO2, 37° C. On the following day, cells were treated with various column fractions that were concentrated with Microcon Centrifugal Filter Devices (Ultracel YM-3) from Millipore. 0.2-0.02 ng/ml hBv8 (Peprotech Inc.) prepared in 1% DMEM was used as a positive control. One hour later, media was removed and replaced with […] Hank's solution containing 0.1% BSA and 6× loading buffer containing 1 mM CCF4 (Invitrogen Corporation). Plates were incubated for 1.5 hr at room temperature in the dark and read on Wallac plate reader at excitation wavelength of 410 nm and emission wavelength of 450/520 nm. Negative controls were cells with no ligand added and control media alone. CHO cells were stimulated with recombinant human Bv8 or pooled fractions for 1 hr before adding the β-lactamase substrate CCF4. To assess the specificity of the column fractions, anti-Bv8 antibodies 2B9 and 3F1 were added at […].

CD11b+Gr1+ myeloid cells = assay: Trans-well migration of BM CD11b+Gr1+ cells; type: cell-based, mouse; details: comparable to SDF-1
Protocol: BMMNCs were isolated from naïve Beige nude mice and the CD11b+Gr1+ population was sorted using CD11b microbeads (Miltenyi Biotech, CA) according to protocols provided by the manufacturer. An aliquot of the sorted cells were stained with anti-CD11bAPC and antiGr1-PE to ensure the purity (100%) of CD11b+Gr1+ cells. For migration assay, 2.0×10^5 cells were plated on the top chamber of transwells (Corning Incorporated, NY). The bottom chambers contained 600 μL of media (IMDM (Gibco BRL, CA) supplemented with BIT (Stem Cell Technologies, BC, Canada) containing human Bv8, control antibody, and murine recombinant VEGF in separate wells. Cells were incubated at 37° C. and 5% CO2 for 9 hrs and migration of CD11+b+Gr1+ cells was evaluated by counting the cells in the bottom chamber.

TIB42-TAEC cells = assay: In vitro tube formation of tumor-associated endothelial cells; type: cell-based, mouse; details: Bv8 200 ng/ml, VEGF-A 100 ng/ml, 36 hours
Protocol: Tumor associated endothelial cells (TAECs) were isolated using a magnetic beads sorting system (Miltenyi Biotech), essentially as previously described (Hida et al., Cancer Res 64:8249-8255 (2004)). Briefly, TIB42 mouse lymphoma cells were injected into the dorsal lateral flanks of female beige nude mice. When tumors reached a diameter of […], they were excised, minced and then digested with collagenase II (Worthington Biochemical Corporation). Cell suspensions were than filtered using 100 μm to 40 μm meshes. CD31^+ cells were finally sorted using a FITC-CD31 antibody (BD Biosciences) according to the manufacturer's instructions. CD31+ cells were seeded in gelatin coated plates in the presence of EGM-2MV media (Cambrex). After 24 hs in culture CD31+ non-adherent cells were removed by washing several times with PBS.
For in vitro tube formation, TIB42-TAEC cells (passages 6-8) were starved for 5 hs in serum free medium. After this, cells were collected and resuspended in serum free medium supplemented with 5% BSA and treated with VEGF-A (100 ng/ml), Bv8 (200 ng/ml) or no addition (control). For specificity tests, Bv8, was incubated in the presence of anti-Bv8 Mabs (10 μg/ml). 5×10^5 cells were seeded in each well of a 24 well pre-coated with Matrigel™ (BD Biosciences) and tube formation was evaluated after 36 hours.

human neutrophils = assay: Chemotaxis of peripheral blood neutrophils; type: cell-based
Protocol: 10^6 cells were washed with HBSS containing 0.2% BSA before putting into transwell insert with 5 μm pore size (Corning Incorporated, Lowell, Mass.). In the lower chamber, media alone or media with various cytokines at various concentrations (maximum at 200 ng/ml) was added. After 3 hr at 37° C., cells in the lower chamber were transferred, mixed with 9 ml ZPAK solution and counted on Z2 Coulter Particle Count and Size Analyzer (Beckman Coulter, Fullerton, Calif.).

p44/42 MAPK = assay: MAPK phosphorylation in TAECs (Western blot); type: cell-based, mouse
Protocol: TIB42-TAEC cells were starved for 6 hr in basal media supplemented with 0.5% BSA. Cells were then stimulated with human recombinant Bv8 (200 ng/ml; PeproTech), Complete Media (CM), VEGF (100 ng/ml; PeproTech) or BSA (0.5%). Cell extracts were collected at the indicated time-points. Western blot analysis of the extracts from TIB42-TAEC cells was performed using PhosphoPlus p44/42 MAPK™ antibody kit (Cell signaling).

[2] = test system: Lin- and CD11b+Gr1+ BM cells; assay: Bv8 treatment of Lin- and CD11b+Gr1+ BM cells; type: cell-based, mouse
Protocol: Supplemental FIG. 3. a. Bv8 induces trans-well migration of CD11b+Gr1+ myeloid cells. Controls were PBS or media alone. b&c. Expression of Bv8 receptors in BMMNCs. Beige nude mice were implanted with A673, HM7, HPAC or Calu-06 cells as described. After 10 days, CD11b+Gr1+ myeloid cells were isolated from the BM and Taqman™ analysis was performed to investigate EG-VEGFRs expression in myeloid and non-myeloid (CD11b−Gr1−) subsets of tumor versus Matrigel™-implanted mice. […] Bv8 alters the fate of the progenitor population to myeloid cells (CD11b+Gr1+) and also inhibitors cell death in the Lin-population. The Lin-fraction, isolated from the BMMNCs of beige nude mice, was incubated with Bv8 for 5 days and the frequency of CD11b+Gr1+ cells was evaluated in a FACSCalibur machine. In addition, 7AAD staining was employed to measure the number of dead cells in each treatment. e. Bv8 induces clonogenic capacity of progenitor cells. Lin-population were treated with Bv8 or PBS for 5 days and were plated on methylcellulose (7500 cells per well) and were incubated in 5% CO2 and 37° C. for 15 days. […] L Bv8 is a survival factor for myloid populations. The CD11b+Gr1+ cells, isolated from the BMMNCs of beige/nude mice, were cultured in media and were treated with Bv8 (300 ng/ml) for 5 days. Cell death was measured in a FACSCalibur machine using 7AAD staining. g&h. […] Mice were implanted with A673 (e) or HM7 (f) tumors and were treated with anti-Bv8 or control antibodies as described. Treatment was stopped at day 7 after implantation, as indicated by arrow in the figure. i&j. Discontinued treatment of anti-Bv8 results in rebound of CD11b+Gr1+ cells to A673 (i) and HM7 (j) tumors.
However, the precise contribution of R1 vs. R2 in mediating Bv8 signaling in BMMNCs remains to be determined. […] To further characterize the effects of Bv8 on the cells of the hematopoietic system, both lineage depleted (Lin— that is devoid of CD11b+Gr1+ cells) and CD11b+Gr1+ cells were isolated from the BM of naïve mice and were treated with recombinant Bv8.

stimulation of PKR1/EG-VEGFR1 transfected CHO cells (PKR1/EG-VEGFR1) | Molecule | Bv8 level in the serum (Bv8 protein levels) | effect on proliferation of tumor cell lines [1] | effect on proliferation of tumor cell lines ([1]; listed as recombinant Bv8) | migration of BM CD11b+Gr1+ cells (CD11b+Gr1+ myeloid cells) | tube formation in Matrigel (TIB42-TAEC cells) | concentration of maximal stimulation (human neutrophils) [pM] | maximal stimulation of chemotaxis above control (human neutrophils; 3 hr) [fold] | MAP kinase phosphorylation in TAECs (p44/42 MAPK) | dead cells among CD11b+Gr1+ cells ([2]; Bv8 300 ng/ml, 5 days) | number of dead cells in Lin- population ([2]; Bv8 for 5 days, 7AAD) | CD11b+Gr1+ cells arising in Lin- population ([2]; Bv8 for 5 days, vs controls) | MAPK pathway in CD11b+Gr1+ cells ([2]; data not shown) | CFU colonies from Lin- cells ([2]; p<0.05 vs control-treated cells)
 | N.N.[Cl][Pt][Cl] [cisplatin] | significantly (p<0.05) increased |  |  |  |  |  |  |  |  |  |  |  | 
dose-dependent stimulation | Bv8: recombinant Bv8 (Prokineticin-2) protein, PeproTech (protein) AVITGACDKDSQCGGGMCCAVSIWVKSIRICTPMGKLGDSCHPLTRKVPFFGRRMHHTCPCLPGLACLRTSFNRFICLAQK |  | neither the anti-Bv8 Mabs nor Bv8 itself had any detectable effects | failed to stimulate the proliferation | promoted migration | promoted tube formation | ~2 | ~3 | strong induction of MAP kinase phosphorylation | fewer dead cells | significantly lower than controls | higher expression of CD11b+Gr1+ cells | activation of MAPK pathway in a time dependent manner | greater number of colonies
